Source: patent publication US20250026849A1 (ARCELLX, published 2025)

T1: BCMA (Homo sapiens (Human), UniProt Q02223 1-54, limits assumed)
T1 sequence: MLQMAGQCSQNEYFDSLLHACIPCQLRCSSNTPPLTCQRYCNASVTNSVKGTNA


Target: T1, BCMA
Assay: ELISA, format not described
Set-up: unit not given here

Binder	ELISA_avg
D-domain SEQ ID NO: 115 (designed binder) MGSWNEFSGRLTAIKDRLAALGGSEAELAAFEKEIAAFESELQAYKGKGNPEVEELRFRAAVIRLWLQAYRHN	3.39
D-domain SEQ ID NO: 116 (designed binder) MGSWVEFDERLVAIWFRLHALGGSEAELAAFEKEIAAFESELQAYKGKGNPEVEALRARAAYIRIWLQAYRHN	8.96
D-domain SEQ ID NO: 117 (designed binder) MGSWSEFGQRLSAIWERLLALGGSEAELAAFEKEIAAFESELQAYKGKGNPEVEALRADAAFIRIWLQAYRHN	14
D-domain SEQ ID NO: 118 (designed binder) MGSWYEFEDRLVAIWIRLDALGGSEAELAAFEKEIAAFESELQAYKGKGNPEVEELRYNAAFIRGALQAYRHN	4.93
D-domain SEQ ID NO: 119 (designed binder) MGSWYEFGDRLSAIWERLAALGGSEAELAAFEKEIAAFESELQAYKGKGNPEVEYLRTHAAEIRTILQAYRHN	8.89
D-domain SEQ ID NO: 122 (designed binder) MGSWLEFHYRLHAIQFRLYALGGSEAELAAFEKEIAAFESELQAYKGKGNPEVETLRHIAALIRNQLQAYRHN	12.7
D-domain SEQ ID NO: 123 (designed binder) MGSWQEFYNRLEAIHMRLFALGGSEAELAAFEKEIAAFESELQAYKGKGNPEVEGLRSDAAPIRDVLQAYRHN	6.47
D-domain SEQ ID NO: 124 (designed binder) MGSWNEFHHRLWAIFDRLGALGGSEAELAAFEKEIAAFESELQAYKGKGNPEVEVLRKMAAGIRGGLQAYRHN	3.88
D-domain SEQ ID NO: 125 (designed binder) MGSWYEFHYRLKAINDRLYALGGSEAELAAFEKEIAAFESELQAYKGKGNPEVEYLRYSAAMIRHKLQAYRHN	6.04
D-domain SEQ ID NO: 126 (designed binder) MGSWTEFHQRLGAIHARLGALGGSEAELAAFEKEIAAFESELQAYKGKGNPEVEYLRFSAAFIRLKLQAYRHN	8.87
D-domain SEQ ID NO: 127 (designed binder) MGSWFEFQYRLEAIFYRLLALGGSEAELAAFEKEIAAFESELQAYKGKGKPEVEELRVRAALIRHLLQAYRHN	17.3
D-domain SEQ ID NO: 128 (designed binder) MGSWVEFHARLDAIYTRLGALGGSEAELAAFEKEIAAFESELQAYKGKGNPEVEYLRVLAAHIRISLQAYRHN	3.8
D-domain SEQ ID NO: 129 (designed binder) MGSWVEFGTRLSAIYNRLWALGGSEAELAAFEKEIAAFESELQAYKGKGNPEVEDLRFEAAIIRIMLQAYRHN	15.4
D-domain SEQ ID NO: 130 (designed binder) MGSWVEFTHRLDAIYIRLWALGGSEAELAAFEKEIAAFESELQAYKGKGNPEVEELRHEAAVIREELQAYRHN	13.9
D-domain SEQ ID NO: 131 (designed binder) MGSWVEFHGRLAAIYVRLFALGGSEAELAAFEKEIAAFESELQAYKGKGNPEVESLRYHAAMIRRNLQAYRHN	4
D-domain SEQ ID NO: 132 (designed binder) MGSWVEFDRRLVAIYIRLWALGGSEAELAAFEKEIAAFESELQAYKGKGNPEVEALRDDAALIRLLLQAYRHN	8.93
D-domain SEQ ID NO: 133 (designed binder) MGSWVEFDRRLVAIYIRLWALGGSEAELAAFEKEIAAFESELQAYKGKGNPEVEKLRYDAATIRETLQAYRHN	8
D-domain SEQ ID NO: 141 (designed binder) MGSWNEFRNRLGAIDSRLWALGGSEAELAAFEKEIAAFESELQAYKGKGNPEVETLRAHAAIIRSVLQAYRHN	4.7

Results, then the binder that gave them:

ELISA_avg	Binder
9.82	D-domain SEQ ID NO: 134 (designed binder) MGSWLEFDRRLTAIYLRLWALGGSEAELAAFEKEIAAFESELQAYKGKGNPEVEALREDAAMIRDMLQAYRHN
9.45	D-domain SEQ ID NO: 136 (designed binder) MGSWIEFDRRLIAIWIRLWALGGSEAELAAFEKEIAAFESELQAYKGKGNPEVESLRSDAADIRQKLQAYRHN
5.77	D-domain SEQ ID NO: 137 (designed binder) MGSWVEFDRRLIAIWVRLWALGGSEAELAAFEKEIAAFESELQAYKGKGNPEVEFLRSDAAMIREHLQAYRHN
13.7	D-domain SEQ ID NO: 135 (designed binder) MGSWIEFDRRLLAIHVRLWALGGSEAELAAFEKEIAAFESELQAYKGKGNPEVEVLRADAAKIRMELQAYRHN
4.06	D-domain SEQ ID NO: 138 (designed binder) MGSWYEFHTRLIAIYVRLWALGGSEAELAAFEKEIAAFESELQAYKGKGNPEVEWLRGDAAKIRGYLQAYRHN
5.35	D-domain SEQ ID NO: 139 (designed binder) MGSWSEFSTRLSAIYVRLWALGGSEAELAAFEKEIAAFESELQAYKGKGNPEVEYLRNKAASIRKTLQAYRHN
10.8	D-domain SEQ ID NO: 140 (designed binder) MGSWVEFRYRLGAIYHRLWALGGSEAELAAFEKEIAAFESELQAYKGKGNPEVEVLRDRAATIRRLLQAYRHN
3.49	D-domain SEQ ID NO: 142 (designed binder) MGSWHEFRNRLGAIDSRLWALGGSEAELAAFEKEIAAFESELQAYKGKGNPEVETLRARAAMIRSVLQAYRHN
6.96	D-domain SEQ ID NO: 143 (designed binder) MGSWTEFYQRLEAINFRLWALGGSEAELAAFEKEIAAFESELQAYKGKGNPEVEVLRDKAALIRLMLQAYRHN
3	D-domain SEQ ID NO: 144 (designed binder) MGSWNEFYNRLHAINLRLWALGGSEAELAAFEKEIAAFESELQAYKGKGNPEVEVLREHAAIIRQALQAYRHN
3.28	D-domain SEQ ID NO: 145 (designed binder) MGSWEEFYGRLSAIQDRLWALGGSEAELAAFEKEIAAFESELQAYKGKGNPEVEWLRMHAAVIRRALQAYRHN
12.8	D-domain SEQ ID NO: 146 (designed binder) MGSWGEFNLRLVAIHVRLWALGGSEAELAAFEKEIAAFESELQAYKGKGNPEVEFLRSQAANIRAQLQAYRHN
4.26	D-domain SEQ ID NO: 147 (designed binder) MGSWGEFSDRLEAINERLWALGGSEAELAAFEKEIAAFESELQAYKGKGNPEVEELRWQAAFIRANLQAYRHN
3.93	D-domain SEQ ID NO: 149 (designed binder) MGSWMEFEGRLPAILARLRALGGSEAELAAFEKEIAAFESELQAYKGKGNPEVEHLRDKAAYIRWMLQAYRHN
